± gives the standard deviation of the averaged measurements.
Key:
hTERT-HMEC = test: percentage of EdU-negative (G0-arrested) nuclei per well, 72 h; higher = more G0 arrest; conditions: reference: sequence is the full UniProt precursor, the tested protein was the secreted form or ectodomain
MCF7 = test: as above; conditions: reference: sequence is the full UniProt precursor, the tested protein was the secreted form or ectodomain
[1] = protein concentration 0.0225 µM
[2] = protein concentration 0.0185 µM
[3] = protein concentration 0.03125 µM
[4] = protein concentration 0.3125 µM
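Also: secreted proteins added to cultured cells, EdU pulse at the end, nuclei found by Hoechst imaging, EdU status from nuclear versus surrounding ring intensity ratio, PBS as neutral control.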

| Sequence | percentage of EdU-negative (hTERT-HMEC; [1]) | percentage of EdU-negative (hTERT-HMEC; protein concentration 0.225 µM) | percentage of EdU-negative (MCF7; [1]) | percentage of EdU-negative (MCF7; protein concentration 0.225 µM) | also measured |
| --- | --- | --- | --- | --- | --- |
| MTALFLMSMLFGLTCGQAMSFCIPTEYTMHIERRECAYCLTINTTICAGYCMTRDINGKLFLPKYALSQDVCTYRDFIYRTVEIPGCPLHVAPYFSYPVALSCKCGKCNTDYSDCIHEAIKTNYCTKPQKSYLVGFSV |  |  |  |  | percentage of EdU-negative (hTERT-HMEC; protein concentration 0.017 µM): 5.28 ± 0.69%; percentage of EdU-negative (hTERT-HMEC; protein concentration 0.17 µM): 9.97 ± 1.1%; percentage of EdU-negative (MCF7; protein concentration 0.017 µM): 27.8 ± 3.8%; percentage of EdU-negative (MCF7; protein concentration 0.17 µM): 27.2 ± 1.9% |
| MLLLINVILTLWVSCANGQVKPCDFPDIKHGGLFHENMRRPYFPVAVGKYYSYYCDEHFETPSGSYWDYIHCTQNGWSPAVPCLRKCYFPYLENGYNQNYGRKFVQGNSTEVACHPGYGLPKAQTTVTCTEKGWSPTPRCIRVRTCSKSDIEIENGFISESSSIYILNKEIQYKCKPGYATADGNSSGSITCLQNGWSAQPICINSSEKCGPPPPISNGDTTSFLLKVYVPQSRVEYQCQPYYELQGSNYVTCSNGEWSEPPRCIHPCIITEENMNKNNIKLKGRSDRKYYAKTGDTIEFMCKLGYNANTSILSFQAVCREGIVEYPRCE | 5.2 ± 0.45% | 5.74 ± 0.65% | 28 ± 0.75% | 29.4 ± 0.63% |  |
| MVTSSFPISVAVFALITLQVGTQDSFIAAVYEHAVILPNKTETPVSQEDALNLMNENIDILETAIKQAAEQGARIIVTPEDALYGWKFTRETVFPYLEDIPDPQVNWIPCQDPHRFGHTPVQARLSCLAKDNSIYVLANLGDKKPCNSRDSTCPPNGYFQYNTNVVYNTEGKLVARYHKYHLYSEPQFNVPEKPELVTFNTAFGRFGIFTCFDIFFYDPGVTLVKDFHVDTILFPTAWMNVLPLLTAIEFHSAWAMGMGVNLLVANTHHVSLNMTGSGIYAPNGPKVYHYDMKTELGKLLLSEVDSHPLSSLAYPTAVNWNAYATTIKPFPVQKNTFRGFISRDGFNFTELFENAGNLTVCQKELCCHLSYRMLQKEENEVYVLGAFTGLHGRRRREYWQVCTLLKCKTTNLTTCGRPVETASTRFEMFSLSGTFGTEYVFPEVLLTEIHLSPGKFEVLKDGRLVNKNGSSGPILTVSLFGRWYTKDSLYSSCGTSNSAITYLLIFILLMIIALQNIVML |  |  |  |  | percentage of EdU-negative (hTERT-HMEC; [2]): 3.63 ± 0.35%; percentage of EdU-negative (hTERT-HMEC; protein concentration 0.185 µM): 6.84 ± 0.58%; percentage of EdU-negative (MCF7; [2]): 25.8 ± 0.6%; percentage of EdU-negative (MCF7; protein concentration 0.185 µM): 28.11 ± 0.25% |
| MRLLPLLRTVLWAAFLGSPLRGGSSLRHVVYWNSSNPRLLRGDAVVELGLNDYLDIVCPHYEGPGPPEGPETFALYMVDWPGYESCQAEGPRAYKRWVCSLPFGHVQFSEKIQRFTPFSLGFEFLPGETYYYISVPTPESSGQCLRLQVSVCCKERKSESAHPVGSPGESGTSGWRGGDTPSPLCLLLLLLLLILRLLRIL | 5.7 ± 0.081% | 8.57 ± 0.56% | 27.2 ± 2.5% | 25.7 ± 0.36% |  |
| MRGPSGALWLLLALRTVLGGMEVRWCATSDPEQHKCGNMSEAFREAGIQPSLLCVRGTSADHCVQLIAAQEADAITLDGGAIYEAGKEHGLKPVVGEVYDQEVGTSYYAVAVVRRSSHVTIDTLKGVKSCHTGINRTVGWNVPVGYLVESGRLSVMGCDVLKAVSDYFGGSCVPGAGETSYSESLCRLCRGDSSGEGVCDKSPLERYYDYSGAFRCLAEGAGDVAFVKHSTVLENTDGKTLPSWGQALLSQDFELLCRDGSRADVTEWRQCHLARVPAHAVVVRADTDGGLIFRLLNEGQRLFSHEGSSFQMFSSEAYGQKDLLFKDSTSELVPIATQTYEAWLGHEYLHAMKGLLCDPNRLPPYLRWCVLSTPEIQKCGDMAVAFRRQRLKPEIQCVSAKSPQHCMERIQAEQVDAVTLSGEDIYTAGKTYGLVPAAGEHYAPEDSSNSYYVVAVVRRDSSHAFTLDELRGKRSCHAGFGSPAGWDVPVGALIQRGFIRPKDCDVLTAVSEFFNASCVPVNNPKNYPSSLCALCVGDEQGRNKCVGNSQERYYGYRGAFRCLVENAGDVAFVRHTTVFDNTNGHNSEPWAAELRSEDYELLCPNGARAEVSQFAACNLAQIPPHAVMVRPDTNIFTVYGLLDKAQDLFGDDHNKNGFKMFDSSNYHGQDLLFKDATVRAVPVGEKTTYRGWLGLDYVAALEGMSSQQCSGAAAPAPGAPLLPLLLPALAARLLPPAL | 6.116 ± 0.02% | 26.6 ± 0.69% | 26.1 ± 0.62% | 27.8 ± 1.6% |  |
| MKYTSYILAFQLCIVLGSLGCYCQDPYVKEAENLKKYFNAGHSDVADNGTLFLGILKNWKEESDRKIMQSQIVSFYFKLFKNFKDDQSIQKSVETIKEDMNVKFFNSNKKKRDDFEKLTNYSVTDLNVQRKAIHELIQVMAELSPAAKTGKRKRSQMLFRGRRASQ |  |  |  |  | percentage of EdU-negative (hTERT-HMEC; [3]): 92.2 ± 1.5%; percentage of EdU-negative (hTERT-HMEC; [4]): 96.92 ± 0.62%; percentage of EdU-negative (MCF7; [3]): 39.5 ± 2.2%; percentage of EdU-negative (MCF7; [4]): 42.7 ± 1.8% |
| MATHHTLWMGLALLGVLGDLQAAPEAQVSVQPNFQQDKFLGRWFSAGLASNSSWLREKKAALSMCKSVVAPATDGGLNLTSTFLRKNQCETRTMLLQPAGSLGSYSYRSPHWGSTYSVSVVETDYDQYALLYSQGSKGPGEDFRMATLYSRTQTPRAELKEKFTAFCKAQGFTEDTIVFLPQTDKCMTEQ | 4.95 ± 1.2% | 7.39 ± 0.34% | 27.3 ± 2.4% | 25.1 ± 1.9% |  |

— the supplement of paper PMC11316812
